The values that follow come from PMC10247930, “The effects of novel macrocyclic chelates on the targeting properties of the ^68Ga-labeled Gastrin releasing peptide receptor antagonist RM2” (EJNMMI Research, 2023).

The series is described as follows: in vivo. Conditions: male, BALB/c nu/nu, mouse, iv, 2.6 MBq, total radioactivity. Details: species or system BALB/c nu/nu mice. How it is done:
Biodistribution. BALB/c nu/nu male mice were implanted subcutaneously with 10 million PC-3 tumor cells, freshly expanded in saline. Biodistribution studies were performed 3 to 4 weeks after tumor cell inoculation when the tumor-bearing mice reached an average mass of 20 ± 3 g. Mice were injected with ^68Ga-X-RM2 (100 µL, 2.6 MBq) into the tail vein. The animals were sacrificed at 30, 60, and 120 min post-injection. Then the organs of interest were collected and weighed, and their radioactivity content was measured in a gamma counter.

For the compound `CC(C)C[C@H](NC(=O)C[C@H](O)[C@H](CC(C)C)NC(=O)[C@H](Cc1c[nH]cn1)NC(=O)CNC(=O)[C@@H](NC(=O)[C@H](C)NC(=O)[C@H](Cc1c[nH]c2ccccc12)NC(=O)[C@H](CCC(N)=O)NC(=O)[C@@H](Cc1ccccc1)NC(=O)CN1CCC(NC(=O)CCCCC2(N(C)CC(=O)O)CN(CC(=O)O)CCN(CC(=O)O)C2)CC1)C(C)C)C(N)=O` [DATA^5m-RM2], the tissue to tissue ratio at 0.5 h by setting is: (Tumour/blood ratio) 4.23; (Tumour/bone ratio) 16.2; (Tumour/kidneys ratio) 1.73; (Tumour/liver ratio) 5.86; (Tumour/muscle ratio) 25.4. In addition, the tissue to tissue ratio at 1 h is, setting by setting: (Tumour/blood ratio) 14.6; (Tumour/bone ratio) 29.3; (Tumour/kidneys ratio) 2.2; (Tumour/liver ratio) 7.57; (Tumour/muscle ratio) 56.8. The tissue to tissue ratio at 2 h (Tumour/blood ratio) stood at 18.2; the tissue to tissue ratio at 2 h (Tumour/bone ratio) was determined as 50.2; the tissue to tissue ratio at 2 h (Tumour/kidneys ratio) was 2.41; the tissue to tissue ratio at 2 h (Tumour/liver ratio) is 6.09; the tissue to tissue ratio at 2 h (Tumour/muscle ratio) was 62.2.

In the case of `CC(C)C[C@H](NC(=O)C[C@H](O)[C@H](CC(C)C)NC(=O)[C@H](Cc1c[nH]cn1)NC(=O)CNC(=O)[C@@H](NC(=O)[C@H](C)NC(=O)[C@H](Cc1c[nH]c2ccccc12)NC(=O)[C@H](CCC(N)=O)NC(=O)[C@@H](Cc1ccccc1)NC(=O)CN1CCC(NC(=O)CN2CCN(CC(=O)O)CCN(CC(=O)O)CCN(CC(=O)O)CC2)CC1)C(C)C)C(N)=O` (68Ga complex, metal not drawn) [DOTA-RM2, reference compound], the tissue to tissue ratio at 0.5 h turned out to be 2.35 (Tumour/blood ratio); 11.2 (Tumour/bone ratio); 1.53 (Tumour/kidneys ratio); 3.19 (Tumour/liver ratio); 14.4 (Tumour/muscle ratio). In addition, the tissue to tissue ratio at 1 h is, setting by setting: (Tumour/blood ratio) 3.88; (Tumour/bone ratio) 8.99; (Tumour/kidneys ratio) 1.89; (Tumour/liver ratio) 3.4; (Tumour/muscle ratio) 21.8. For the same compound, the tissue to tissue ratio at 2 h by setting is: (Tumour/blood ratio) 4.58; (Tumour/bone ratio) 8.6; (Tumour/kidneys ratio) 2.05; (Tumour/liver ratio) 4; (Tumour/muscle ratio) 31.7.

Turning to `CC(C)C[C@H](NC(=O)C[C@H](O)[C@H](CC(C)C)NC(=O)[C@H](Cc1c[nH]cn1)NC(=O)CNC(=O)[C@@H](NC(=O)[C@H](C)NC(=O)[C@H](Cc1c[nH]c2ccccc12)NC(=O)[C@H](CCC(N)=O)NC(=O)[C@@H](Cc1ccccc1)NC(=O)CN1CCC(NC(=O)CCCCC2(N(CC(=O)O)CC(=O)O)CN(CC(=O)O)CCN(CC(=O)O)C2)CC1)C(C)C)C(N)=O` [AAZTA^5-RM2], the tissue to tissue ratio at 0.5 h by setting is: (Tumour/blood ratio) 3.53; (Tumour/bone ratio) 21.8; (Tumour/kidneys ratio) 1.2; (Tumour/liver ratio) 6.04; (Tumour/muscle ratio) 10.3. Moreover, the tissue to tissue ratio at 1 h (Tumour/blood ratio) was determined as 8.38; the tissue to tissue ratio at 1 h (Tumour/bone ratio) was 36; the tissue to tissue ratio at 1 h (Tumour/kidneys ratio) came out at 1.41; the tissue to tissue ratio at 1 h (Tumour/liver ratio) was found to be 7.55; the tissue to tissue ratio at 1 h (Tumour/muscle ratio) was determined as 37.6. Also, the tissue to tissue ratio at 2 h came out at 15.6 (Tumour/blood ratio); 57.5 (Tumour/bone ratio); 1.31 (Tumour/kidneys ratio); 5.92 (Tumour/liver ratio); 60.7 (Tumour/muscle ratio).
